*1 amine or outer side, *2 acyl side, *3 side chain or, on linkers, in order; H or OH if unused. [ ]: non-standard residue; d: D form. TyrEtNAc = L-tyrosine O-ethyl acetamide, (S)-3-(4-(2-acetamidoethoxy)phenyl)-2-aminopropanoic acid, CC(=O)NCCOc1ccc(C[C@H](N[*:1])C(=O)[*:2])cc1; dDabMe3 = [(R)-3-amino-3-carboxypropyl]-trimethylazanium, C[N+](C)(C)CC[C@@H](N[*:1])C(=O)[*:2]; DapAc = (S)-3-acetamido-2-aminopropanoic acid, CC(=O)NC[C@H](N[*:1])C(=O)[*:2]; Phe(4-(4-Ac-piperazinyl)) = CC(=O)N1CCN(c2ccc(C[C@H](N)C(=O)O)cc2)CC1; Pro(trans-4-NH2) = O=C([C@@H]1C[C@@H](N[*:3])CN1[*:1])[*:2]; Bip(4'-COOH) = N[C@@H](Cc1ccc(-c2ccc(C(=O)O)cc2)cc1)C(=O)O; 1Nal(3S-Me) = C[C@@H](c1cccc2ccccc12)[C@H](N)C(=O)O; Ala(indolin-1-yl) = N[C@@H](CN1CCc2ccccc21)C(=O)O; Trp(6-Cl) = N[C@@H](Cc1c[nH]c2cc(Cl)ccc12)C(=O)O; Phe(4-COOH) = N[C@@H](Cc1ccc(C(=O)O)cc1)C(=O)O; Trp(6-F) = N[C@@H](Cc1c[nH]c2cc(F)ccc12)C(=O)O; Trp(7-aza) = N[C@@H](Cc1c[nH]c2ncccc12)C(=O)O; h3Pal(5-CN) = N#Cc1cncc(CC[C@H](N)C(=O)O)c1; hTyr = N[C@@H](CCc1ccc(O)cc1)C(=O)O; hCha = N[C@@H](CCC1CCCCC1)C(=O)O; dDab = NCC[C@@H](N)C(=O)O; Orn = NCCC[C@H](N)C(=O)O; dDap = NC[C@@H](N)C(=O)O; dNMeA = CN[C@H](C)C(=O)O; Dab = NCC[C@H](N)C(=O)O; Dap = NC[C@H](N)C(=O)O
What follows are binders tested against Recombinant human IL-1β (BioLegend 579404) (human, UniProt P01584 117-269) (assay: cell-based or functional assay).

Row | Binder | MRC5 IC50
1 | cyclo([TyrEtNAc][Trp(6-Cl)][Phe(4-COOH)]G[Pro(trans-4-NH2)][1Nal(3S-Me)]D[dNMeA]G[Bip(4'-COOH)][Trp(7-aza)]S[dDab][hCha]) (SMILES CC(=O)NCCOc1ccc(C[C@@H]2NC(=O)[C@H](CCC3CCCCC3)NC(=O)[C@@H](CCN)NC(=O)[C@H](CO)NC(=O)[C@H](Cc3c[nH]c4ncccc34)NC(=O)[C@H](Cc3ccc(-c4ccc(C(=O)O)cc4)cc3)NC(=O)CNC(=O)[C@@H](C)N(C)C(=O)[C@H](CC(=O)O)NC(=O)[C@H]([C@@H](C)c3cccc4ccccc34)NC(=O)[C@@H]3C[C@@H](N)CN3C(=O)CNC(=O)[C@H](Cc3ccc(C(=O)O)cc3)NC(=O)[C@H](Cc3c[nH]c4cc(Cl)ccc34)NC2=O)cc1) [SEQ ID NO: 210 (Example No. 210)] | 0.02 nM
2 | cyclo([Phe(4-(4-Ac-piperazinyl))]W[Phe(4-COOH)]G[Pro(trans-4-NH2)][1Nal(3S-Me)]D[dNMeA]G[Bip(4'-COOH)]KL[dA][hCha]) (SMILES CC(=O)N1CCN(c2ccc(C[C@@H]3NC(=O)[C@H](CCC4CCCCC4)NC(=O)[C@@H](C)NC(=O)[C@H](CC(C)C)NC(=O)[C@H](CCCCN)NC(=O)[C@H](Cc4ccc(-c5ccc(C(=O)O)cc5)cc4)NC(=O)CNC(=O)[C@@H](C)N(C)C(=O)[C@H](CC(=O)O)NC(=O)[C@H]([C@@H](C)c4cccc5ccccc45)NC(=O)[C@@H]4C[C@@H](N)CN4C(=O)CNC(=O)[C@H](Cc4ccc(C(=O)O)cc4)NC(=O)[C@H](Cc4c[nH]c5ccccc45)NC3=O)cc2)CC1) [SEQ ID NO: 207 (Example No. 207)] | 0.011 nM
3 | cyclo([Phe(4-(4-Ac-piperazinyl))]W[Phe(4-COOH)]G[Pro(trans-4-NH2)][1Nal(3S-Me)]D[dNMeA]G[Bip(4'-COOH)][Dap]L[dA][hCha]) (SMILES CC(=O)N1CCN(c2ccc(C[C@@H]3NC(=O)[C@H](CCC4CCCCC4)NC(=O)[C@@H](C)NC(=O)[C@H](CC(C)C)NC(=O)[C@H](CN)NC(=O)[C@H](Cc4ccc(-c5ccc(C(=O)O)cc5)cc4)NC(=O)CNC(=O)[C@@H](C)N(C)C(=O)[C@H](CC(=O)O)NC(=O)[C@H]([C@@H](C)c4cccc5ccccc45)NC(=O)[C@@H]4C[C@@H](N)CN4C(=O)CNC(=O)[C@H](Cc4ccc(C(=O)O)cc4)NC(=O)[C@H](Cc4c[nH]c5ccccc45)NC3=O)cc2)CC1) [SEQ ID NO: 206 (Example No. 206)] | 0.015 nM
4 | cyclo([Phe(4-(4-Ac-piperazinyl))]W[Phe(4-COOH)]G[Pro(trans-4-NH2)][1Nal(3S-Me)]D[dNMeA]G[Bip(4'-COOH)][DapAc]L[dDap][h3Pal(5-CN)]) (SMILES CC(=O)NC[C@@H]1NC(=O)[C@H](Cc2ccc(-c3ccc(C(=O)O)cc3)cc2)NC(=O)CNC(=O)[C@@H](C)N(C)C(=O)[C@H](CC(=O)O)NC(=O)[C@H]([C@@H](C)c2cccc3ccccc23)NC(=O)[C@@H]2C[C@@H](N)CN2C(=O)CNC(=O)[C@H](Cc2ccc(C(=O)O)cc2)NC(=O)[C@H](Cc2c[nH]c3ccccc23)NC(=O)[C@H](Cc2ccc(N3CCN(C(C)=O)CC3)cc2)NC(=O)[C@H](CCc2cncc(C#N)c2)NC(=O)[C@@H](CN)NC(=O)[C@H](CC(C)C)NC1=O) [SEQ ID NO: 205 (Example No. 205)] | 0.01 nM
5 | cyclo([Phe(4-(4-Ac-piperazinyl))]W[Phe(4-COOH)]G[Pro(trans-4-NH2)][1Nal(3S-Me)]D[dNMeA]G[Bip(4'-COOH)][DapAc]K[dA][h3Pal(5-CN)]) (SMILES CC(=O)NC[C@@H]1NC(=O)[C@H](Cc2ccc(-c3ccc(C(=O)O)cc3)cc2)NC(=O)CNC(=O)[C@@H](C)N(C)C(=O)[C@H](CC(=O)O)NC(=O)[C@H]([C@@H](C)c2cccc3ccccc23)NC(=O)[C@@H]2C[C@@H](N)CN2C(=O)CNC(=O)[C@H](Cc2ccc(C(=O)O)cc2)NC(=O)[C@H](Cc2c[nH]c3ccccc23)NC(=O)[C@H](Cc2ccc(N3CCN(C(C)=O)CC3)cc2)NC(=O)[C@H](CCc2cncc(C#N)c2)NC(=O)[C@@H](C)NC(=O)[C@H](CCCCN)NC1=O) [SEQ ID NO: 204 (Example No. 204)] | 0.009 nM
6 | cyclo([Phe(4-(4-Ac-piperazinyl))]W[Phe(4-COOH)]G[Pro(trans-4-NH2)][1Nal(3S-Me)]D[dNMeA]G[Bip(4'-COOH)][Dab]L[dA][hCha]) (SMILES CC(=O)N1CCN(c2ccc(C[C@@H]3NC(=O)[C@H](CCC4CCCCC4)NC(=O)[C@@H](C)NC(=O)[C@H](CC(C)C)NC(=O)[C@H](CCN)NC(=O)[C@H](Cc4ccc(-c5ccc(C(=O)O)cc5)cc4)NC(=O)CNC(=O)[C@@H](C)N(C)C(=O)[C@H](CC(=O)O)NC(=O)[C@H]([C@@H](C)c4cccc5ccccc45)NC(=O)[C@@H]4C[C@@H](N)CN4C(=O)CNC(=O)[C@H](Cc4ccc(C(=O)O)cc4)NC(=O)[C@H](Cc4c[nH]c5ccccc45)NC3=O)cc2)CC1) [SEQ ID NO: 203 (Example No. 203)] | 0.012 nM
7 | cyclo([Phe(4-(4-Ac-piperazinyl))]W[Phe(4-COOH)]G[Pro(trans-4-NH2)][1Nal(3S-Me)]D[dNMeA]G[Bip(4'-COOH)][LysAc]L[dA][h3Pal(5-CN)]) [SEQ ID NO: 208 (Example No. 208)] | 0.018 nM
8 | cyclo([Phe(4-(4-Ac-piperazinyl))]W[Phe(4-COOH)]G[Pro(trans-4-NH2)][1Nal(3S-Me)]D[dNMeA]G[Bip(4'-COOH)][Orn]L[dA][hCha]) (SMILES CC(=O)N1CCN(c2ccc(C[C@@H]3NC(=O)[C@H](CCC4CCCCC4)NC(=O)[C@@H](C)NC(=O)[C@H](CC(C)C)NC(=O)[C@H](CCCN)NC(=O)[C@H](Cc4ccc(-c5ccc(C(=O)O)cc5)cc4)NC(=O)CNC(=O)[C@@H](C)N(C)C(=O)[C@H](CC(=O)O)NC(=O)[C@H]([C@@H](C)c4cccc5ccccc45)NC(=O)[C@@H]4C[C@@H](N)CN4C(=O)CNC(=O)[C@H](Cc4ccc(C(=O)O)cc4)NC(=O)[C@H](Cc4c[nH]c5ccccc45)NC3=O)cc2)CC1) [SEQ ID NO: 209 (Example No. 209)] | 0.009 nM

Second part, the binder after the results:

Row | MRC5 IC50 | Binder
9 | 0.027 nM | cyclo([TyrEtNAc][Trp(6-F)][Phe(4-COOH)]G[Pro(trans-4-NH2)][1Nal(3S-Me)]D[dNMeA]G[Bip(4'-COOH)][Ala(indolin-1-yl)]G[dDab][hTyr]) (SMILES CC(=O)NCCOc1ccc(C[C@@H]2NC(=O)[C@H](CCc3ccc(O)cc3)NC(=O)[C@@H](CCN)NC(=O)CNC(=O)[C@H](CN3CCc4ccccc43)NC(=O)[C@H](Cc3ccc(-c4ccc(C(=O)O)cc4)cc3)NC(=O)CNC(=O)[C@@H](C)N(C)C(=O)[C@H](CC(=O)O)NC(=O)[C@H]([C@@H](C)c3cccc4ccccc34)NC(=O)[C@@H]3C[C@@H](N)CN3C(=O)CNC(=O)[C@H](Cc3ccc(C(=O)O)cc3)NC(=O)[C@H](Cc3c[nH]c4cc(F)ccc34)NC2=O)cc1) [SEQ ID NO: 211 (Example No. 211)]
10 | 0.024 nM | cyclo([TyrEtNAc]W[Phe(4-COOH)]G[Pro(trans-4-NH2)][1Nal(3S-Me)]D[dNMeA]G[Bip(4'-COOH)][Trp(7-aza)]G[dDab][hTyr]) (SMILES CC(=O)NCCOc1ccc(C[C@@H]2NC(=O)[C@H](CCc3ccc(O)cc3)NC(=O)[C@@H](CCN)NC(=O)CNC(=O)[C@H](Cc3c[nH]c4ncccc34)NC(=O)[C@H](Cc3ccc(-c4ccc(C(=O)O)cc4)cc3)NC(=O)CNC(=O)[C@@H](C)N(C)C(=O)[C@H](CC(=O)O)NC(=O)[C@H]([C@@H](C)c3cccc4ccccc34)NC(=O)[C@@H]3C[C@@H](N)CN3C(=O)CNC(=O)[C@H](Cc3ccc(C(=O)O)cc3)NC(=O)[C@H](Cc3c[nH]c4ccccc34)NC2=O)cc1) [SEQ ID NO: 215 (Example No. 215)]
11 | 0.02 nM | cyclo([TyrEtNAc]W[Phe(4-COOH)]G[Pro(trans-4-NH2)][1Nal(3S-Me)]D[dNMeA]G[Bip(4'-COOH)][Trp(7-aza)]G[dDab][hCha]) (SMILES CC(=O)NCCOc1ccc(C[C@@H]2NC(=O)[C@H](CCC3CCCCC3)NC(=O)[C@@H](CCN)NC(=O)CNC(=O)[C@H](Cc3c[nH]c4ncccc34)NC(=O)[C@H](Cc3ccc(-c4ccc(C(=O)O)cc4)cc3)NC(=O)CNC(=O)[C@@H](C)N(C)C(=O)[C@H](CC(=O)O)NC(=O)[C@H]([C@@H](C)c3cccc4ccccc34)NC(=O)[C@@H]3C[C@@H](N)CN3C(=O)CNC(=O)[C@H](Cc3ccc(C(=O)O)cc3)NC(=O)[C@H](Cc3c[nH]c4ccccc34)NC2=O)cc1) [SEQ ID NO: 214 (Example No. 214)]
12 | 0.025 nM | cyclo([TyrEtNAc][Trp(6-F)][Phe(4-COOH)]G[Pro(trans-4-NH2)][1Nal(3S-Me)]D[dNMeA]G[Bip(4'-COOH)][Trp(7-aza)]S[dDab][hCha]) (SMILES CC(=O)NCCOc1ccc(C[C@@H]2NC(=O)[C@H](CCC3CCCCC3)NC(=O)[C@@H](CCN)NC(=O)[C@H](CO)NC(=O)[C@H](Cc3c[nH]c4ncccc34)NC(=O)[C@H](Cc3ccc(-c4ccc(C(=O)O)cc4)cc3)NC(=O)CNC(=O)[C@@H](C)N(C)C(=O)[C@H](CC(=O)O)NC(=O)[C@H]([C@@H](C)c3cccc4ccccc34)NC(=O)[C@@H]3C[C@@H](N)CN3C(=O)CNC(=O)[C@H](Cc3ccc(C(=O)O)cc3)NC(=O)[C@H](Cc3c[nH]c4cc(F)ccc34)NC2=O)cc1) [SEQ ID NO: 212 (Example No. 212)]
13 | 0.018 nM | cyclo([TyrEtNAc][Trp(6-F)][Phe(4-COOH)]G[Pro(trans-4-NH2)][1Nal(3S-Me)]D[dNMeA]G[Bip(4'-COOH)][Trp(7-aza)]S[dDabMe3][hCha]) (SMILES CC(=O)NCCOc1ccc(C[C@@H]2NC(=O)[C@H](CCC3CCCCC3)NC(=O)[C@@H](CC[N+](C)(C)C)NC(=O)[C@H](CO)NC(=O)[C@H](Cc3c[nH]c4ncccc34)NC(=O)[C@H](Cc3ccc(-c4ccc(C(=O)O)cc4)cc3)NC(=O)CNC(=O)[C@@H](C)N(C)C(=O)[C@H](CC(=O)O)NC(=O)[C@H]([C@@H](C)c3cccc4ccccc34)NC(=O)[C@@H]3C[C@@H](N)CN3C(=O)CNC(=O)[C@H](Cc3ccc(C(=O)O)cc3)NC(=O)[C@H](Cc3c[nH]c4cc(F)ccc34)NC2=O)cc1) [SEQ ID NO: 213 (Example No. 213)]

From patent US20230406885A1, “CYCLIC PEPTIDES FOR TRAPPING INTERLEUKIN-1 BETA” (MERCK SHARP & DOHME LLC, priority 2022, published 2023)
